Results as given in the supplement of paper PMC10567573.

B1: ZNF75A (parent)
chain: RTHTGEQPYTCSICRRNFSRRSSL

Variants of: B1
Experiment: protein stability index of a GFP-peptide fusion (GPS, HEK-293T) (PSI 1-6); higher = more stable
Details: c terminus: a fixed tail appended
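Further: lentivirally expressed fusions sorted by FACS into six bins by GFP to DsRed ratio, PSI derived from sequencing read proportions per bin multiplied by bin number.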

Protein stability index of substitutions, site by site:
C14: P 3.6, L 3.5, F 3.59, R 4.49, G 4.72, M 3.92, Q 3.72, E 4.42, I 4.01, W 2.68
R15: G 2.93, W 2.02, P 3.19, S 2.47, N 2.84, A 2.13, Q 2.25, M 1.6
Q7: I 2.63, N 2.6, K 2.59, Y 2.36, M 2.68, A 3.14, D 3.42, F 2.8
F18: P 2.14, V 2.8, M 2.49, C 2.57, T 2.28, L 2.21, H 2.83, K 2.6, N 2.29, D 2.76, E 1.74, Q 2.41
S19: R 2.99, D 2.67, C 2.52, Q 2.72
N17: T 3.5, L 1.88, H 2.61, R 2.99, I 2.18, Q 3.17, K 3.78
S12: K 2.63, V 2.98, I 2.53, Y 2.81, H 3.13, N 2.52, C 2.4
R20: S 1.93, L 2.56, A 2.67, G 3.5, N 2.19, C 2.4, I 1.73, T 2.59
R16: L 1.27, M 2.43, A 1.99, K 2.92, N 1.99, F 1.81, P 2.3, W 1.37, C 1.34, T 2.34, V 1.79
C11: K 3.93, L 3.61, S 3.86, Y 3.3, G 3.37, Q 4.39, M 4.07, P 4.22, D 4.34, N 4, A 3.92, F 3.73
E6: C 3.96, F 3.33, S 2.3, H 3.12, I 3.05, R 2.58, K 2.97, M 2.5, N 2.5, P 2.63, Q 2.62
S22: F 2.81, T 3.27, R 3.55, Y 2.99, H 3.5, A 2.86, P 2.76, C 2.64, D 2.3, G 2.51, I 2.77, V 2.93, E 2.77
H3: L 2.75, W 2.15, C 2.85, Q 2.64, S 3.16, V 2.65, K 3.06
G5: D 3.06, T 3.25, L 2.73, N 2.81, A 2.98, Q 2.81, M 2.86, E 3.45, V 2.76
R21: A 1.64, H 2.12, S 1.58, I 1.61, K 2.5, L 1.79, E 3.51, F 1.95, G 1.72, P 1.97
T10: K 2.43, D 3.48, C 2.63, V 3.85, W 2.63, H 2.85, G 2.18, E 2.37
S23: P 2.94, K 3.2, H 2.32, Q 2.04, E 2.17, D 2.28, T 2.72, A 2.67
L24: H 3.23, S 2.99, I 2.79, V 2.29, D 2.71, Q 3.05, C 2.63, A 3.02, W 1.96, M 2.96, F 2.65
T4: W 2.1, R 3.08, D 3.31
